The target of this test is human CYP2D6 (human) (UniProt P10635).

This note sets out measurements from PMC10527876.

Sequence of UniProt P10635 (P10635 whole entry): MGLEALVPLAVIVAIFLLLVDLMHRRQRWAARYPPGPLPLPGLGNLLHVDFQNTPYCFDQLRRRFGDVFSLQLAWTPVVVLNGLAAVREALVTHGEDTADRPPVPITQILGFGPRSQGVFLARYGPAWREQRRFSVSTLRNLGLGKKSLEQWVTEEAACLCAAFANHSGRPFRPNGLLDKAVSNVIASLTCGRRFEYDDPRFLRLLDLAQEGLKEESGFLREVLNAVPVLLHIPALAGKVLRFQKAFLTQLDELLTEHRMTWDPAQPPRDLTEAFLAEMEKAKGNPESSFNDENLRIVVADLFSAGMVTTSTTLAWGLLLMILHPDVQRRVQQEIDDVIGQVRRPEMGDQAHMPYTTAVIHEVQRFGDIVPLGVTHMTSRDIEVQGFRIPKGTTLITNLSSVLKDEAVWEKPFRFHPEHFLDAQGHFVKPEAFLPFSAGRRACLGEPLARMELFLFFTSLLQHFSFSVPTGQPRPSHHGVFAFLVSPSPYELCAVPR

B1: human UGT1A9 (enzyme)
chain: GKLLVVPMDGSHWFTMRSVVEKLILRGHEVVVVMPEVSWQLGRSLNCTVKTYSTSYTLEDLDREFKAFAHAQWKAQVRSIYSLLMGSYNDIFDLFFSNCRSLFKDKKLVEYLKESSFDAVFLDPFDNCGLIVAKYFSLPSVVFARGILCHYLEEGAQCPAPLSYVPRILLGFSDAMTFKERVRNHIMHLEEHLLCHRFFKNALEIASEILQTPVTEYDLYSHTSIWLLRTDFVLDYPKPVMPNMIFIGGINCHQGKPLPMEFEAYINASGEHGIVVFSLGSMVSEIPEKKAMAIADALGKIPQTVLWRYTGTRPSNLANNTILVKWLPQNDLLGHPMTRAFITHAGSHGVYESICNGVPMVMMPLFGDQMDNAKRMETKGAGVTLNVLEMTSEDLENALKAVINDKSYKENIMRLSSLHKDRPVEPLDLAVFWVEFVMRHKGAPHLRPAAHDLTWYQYHSLDVIGFLLAVVLTVAFITFKCCAYGYRKCLGKKGRVKKAHKSKTH
Turning to B1, the production of 4-hydroxypropranolol from propranolol by CYP2D6 in co-expressing enzyme bags (SAN308), against the CYP2D6 control strain SAN300 stood at 2.8 fold and the production of 5-hydroxypropranolol from propranolol by CYP2D6 in co-expressing enzyme bags (SAN308), against the CYP2D6 control strain SAN300 came to 5.8 fold.

B2: human UGT1A7 (enzyme)
chain: GKLLVVPMDGSHWFTMQSVVEKLILRGHEVVVVMPEVSWQLGRSLNCTVKTYSTSYTLEDQDREFMVFADARWTAPLRSAFSLLTSSSNGIFDLFFSNCRSLFNDRKLVEYLKESCFDAVFLDPFDACGLIVAKYFSLPSVVFARGIFCHYLEEGAQCPAPLSYVPRLLLGFSDAMTFKERVWNHIMHLEEHLFCPYFFKNVLEIASEILQTPVTAYDLYSHTSIWLLRTDFVLEYPKPVMPNMIFIGGINCHQGKPVPMEFEAYINASGEHGIVVFSLGSMVSEIPEKKAMAIADALGKIPQTVLWRYTGTRPSNLANNTILVKWLPQNDLLGHPMTRAFITHAGSHGVYESICNGVPMVMMPLFGDQMDNAKRMETKGAGVTLNVLEMTSEDLENALKAVINDKSYKENIMRLSSLHKDRPVEPLDLAVFWVEFVMRHKGAPHLRPAAHDLTWYQYHSLDVIGFLLAVVLTVAFITFKCCAYGYRKCLGKKGRVKKAHKSKTH
Turning to B2, the production of 4-hydroxypropranolol from propranolol by CYP2D6 in co-expressing enzyme bags (SAN306), against the CYP2D6 control strain SAN300 came out at 3.3 fold and the production of 5-hydroxypropranolol from propranolol by CYP2D6 in co-expressing enzyme bags (SAN306), against the CYP2D6 control strain SAN300 came to 8.4 fold.

B3: human UGT1A8 (enzyme)
chain: GKLLVVPMDGSHWFTMQSVVEKLILRGHEVVVVMPEVSWQLGKSLNCTVKTYSTSYTLEDLDREFMDFADAQWKAQVRSLFSLFLSSSNGFFNLFFSHCRSLFNDRKLVEYLKESSFDAVFLDPFDACGLIVAKYFSLPSVVFARGIACHYLEEGAQCPAPLSYVPRILLGFSDAMTFKERVRNHIMHLEEHLFCQYFSKNALEIASEILQTPVTAYDLYSHTSIWLLRTDFVLDYPKPVMPNMIFIGGINCHQGKPLPMEFEAYINASGEHGIVVFSLGSMVSEIPEKKAMAIADALGKIPQTVLWRYTGTRPSNLANNTILVKWLPQNDLLGHPMTRAFITHAGSHGVYESICNGVPMVMMPLFGDQMDNAKRMETKGAGVTLNVLEMTSEDLENALKAVINDKSYKENIMRLSSLHKDRPVEPLDLAVFWVEFVMRHKGAPHLRPAAHDLTWYQYHSLDVIGFLLAVVLTVAFITFKCCAYGYRKCLGKKGRVKKAHKSKTH
Molecule B3 came in with a production of 4-hydroxypropranolol from propranolol by CYP2D6 in co-expressing enzyme bags (SAN307), against the CYP2D6 control strain SAN300 of 2.1 fold and a production of 5-hydroxypropranolol from propranolol by CYP2D6 in co-expressing enzyme bags (SAN307), against the CYP2D6 control strain SAN300 of 4.8 fold.
